Experimental data: patent publication US20260055206A1 (GENSUN BIOPHARMA, published 2026)

T1: human DLL3 (over-expressed on CHO-K1 cells) (human, UniProt Q9NYJ7 27-618)
T1 construct: whole, on cells; also called huDLL3; Delta-like 3
T1 sequence (looked up): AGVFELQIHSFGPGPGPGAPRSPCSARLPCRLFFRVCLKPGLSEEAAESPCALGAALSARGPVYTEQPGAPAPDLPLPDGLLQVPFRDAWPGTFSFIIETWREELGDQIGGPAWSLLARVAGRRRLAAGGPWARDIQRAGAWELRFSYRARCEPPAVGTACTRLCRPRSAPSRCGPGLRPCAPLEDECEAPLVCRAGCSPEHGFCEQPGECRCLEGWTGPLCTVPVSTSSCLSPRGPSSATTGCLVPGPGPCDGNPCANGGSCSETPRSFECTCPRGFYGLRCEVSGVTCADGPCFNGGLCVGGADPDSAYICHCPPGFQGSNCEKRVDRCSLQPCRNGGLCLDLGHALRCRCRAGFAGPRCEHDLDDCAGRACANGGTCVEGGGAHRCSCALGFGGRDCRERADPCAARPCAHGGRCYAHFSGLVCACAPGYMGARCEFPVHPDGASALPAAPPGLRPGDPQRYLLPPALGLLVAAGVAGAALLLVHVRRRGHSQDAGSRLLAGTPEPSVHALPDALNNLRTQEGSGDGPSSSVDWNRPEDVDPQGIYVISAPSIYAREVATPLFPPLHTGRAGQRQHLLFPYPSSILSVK


Molecular target: T1, human DLL3 (over-expressed on CHO-K1 …)
Assay: flow cytometry (iQue) on CHO-K1 cells over-expressing human DLL3, PE anti-human IgG Fc secondary
Protocol: To evaluate the ability of anti-DLL3 antibodies to bind, human serial dilutions of the anti-DLL3 antibodies were added to CHO-K1 cells (20,000 cells/well) over-expressing human or cyno DLL3. The mixtures were incubated at 4° C. for 20 minutes, washed 3 times, and stained with the secondary antibody, PE labeled F(ab′)2-Goat anti-human IgG Fc (Thermo H10104) at 4° C. for 20 minutes. Cells were washed and resuspended in 7-Amino-Actinomycin D (7-AAD) solution and fixed in 10% neutral buffered formalin solution for 15 minutes before analysis with the iQue-Intellicyt […]™ iQUE™ system. FIG. 3A is a graph of the concentration (nM) versus the mean fluorescence intensity.

binding result | Binder
binds | DLL3.3 (humanized anti-DLL3 antibody) (antibody, V domains shown, it was detected with anti-human IgG Fc) VH: QVQLVQSGAEVKKPGASVKVSCKASGYTFTDYFMNWVRQAPGQGLEWMGVINPYNDITIYNQKFQGRVTMTVDRSTSTVYMELSSLRSEDTAVYYCAREGVLYDGYYEGAYWGQGTLVTVSS VL: DIQLTQSPSFLSASVGDRVTITCKASQNVGIAVAWYQQKPGKAPKLLIYAASNRYTGVPSRFSGSGSGTEFTLTISSLQPEDFATYYCQQYSTYPYTFGQGTKLEIK
binds | DLL3.1 (humanized anti-DLL3 antibody) (antibody, V domains shown, it was detected with anti-human IgG Fc) VH: QVQLVQSGAEVKKPGASVKVSCKASDYTFSNYYIEWVRQAPGQGLEWMGEILPGNGNTVYNEKFKDRVTMTVDTSTSTAYMELRSLRSDDTAVYYCARWGDYALFANWGQGTLVTVSS VL: DIQMTQSPSTLSASVGDRVTITCKASQNVGTNVAWYQQKPGKAPKALIYSASYRYSGVPSRFSGSGSGTEFTLTISSLQPDDFATYYCQQYNSYPFTFGQGTKLEIK
binds | DLL3.4 (humanized anti-DLL3 antibody) (antibody, V domains shown, it was detected with anti-human IgG Fc) VH: QVQLVQSGAEVKKPGASVKVSCKATDYIFSNYYIEWVRQAPGQGLEWMGEILPGTGNTVYNEKFKDRVTMTVDTSTSTVYMELSSLRSEDTAVYYCARWGDYALFANWGQGTLVTVSS VL: DIQMTQSPSFLSASVGDRVTITCKASQNVGTNVAWYQQKPGKAPKPLIYSTSYRYSGVPSRFSGSGSGTEFTLTISSLQPEDFATYYCQQYNNYPLTFGGGTKVEIK
